Drawing on the RNAGym collection of RNA variant scans (doi:10.7554/elife.80360), this text covers self-cleavage for 39 variants.

B1: CPEB3 Ribozyme (parent)
chain: GGGGGCCACAGCAGAAGCGUUCACGUCGCGGCCCCUGUCAGAUUCUGGUGAAUCUGCGAAUUCUGCUGU

The data set covers variants of B1. The experiment in a line: self-cleavage, relative activity (ratio to wild type); higher = more cleavage; co-transcriptional.
In the case of GGGGGCCACAGCAGAAGUGUUCACGCCGCGGCCCCUGUCAGAUUCUGGUGAAUCUGCGAAUUCUGCUGU [C18U U26C], the self-cleavage came out at 0.732.
As for GGGGGCCACAGCAGAAGCAUUCUCGUCGCGGCCCCUGUCAGAUUCUGGUGAAUCUGCGAAUUCUGCUGU [G19A A23U], the self-cleavage came to 0.154.
The result for GGGGGCCACAGCAGAAGCAUUCCCGUCGCGGCCCCUGUCAGAUUCUGGUGAAUCUGCGAAUUCUGCUGU [G19A A23C] reads 0.25.
The figure for GGGGGCCACAGCAGAAGCAUUCGCGUCGCGGCCCCUGUCAGAUUCUGGUGAAUCUGCGAAUUCUGCUGU [G19A A23G] is 0.131; for GGGGGCCACAGCAGAAGUGUUCACGUCGCGGCCCCUGUCAGAUUCUGGUGAAUCUGCGAAGUCUGCUGU [C18U U61G] it is 0.312; for GGGGGCCACAGCAGAAGUGUUCACGUCGCGGCCCCUGUCAGAUUCUGGUGAAUCUGCGAACUCUGCUGU [C18U U61C] it is 0.267.
In the case of GGGGGCCACAGCAGAAGUGUUCACGUCGCGGCCCCUGUCAGAUUCUGGUGAAUCUGCGAAAUCUGCUGU [C18U U61A], the self-cleavage amounted to 0.467.
The figure for GGGGGCCACAGCAGAAGCAUUCACGUCGGGGCCCCUGUCAGAUUCUGGUGAAUCUGCGAAUUCUGCUGU [G19A C29G] is 0.153.
The figure for GGGGGCCACAGCAGAAGCAUUCACGUCGUGGCCCCUGUCAGAUUCUGGUGAAUCUGCGAAUUCUGCUGU [G19A C29U] is 0.0995; for GGGGGCCACAGCAGAAGCAUUCACGUCGCGGCCACUGUCAGAUUCUGGUGAAUCUGCGAAUUCUGCUGU [G19A C34A] it is 0.201.
Take GGGGGCCACAGCAGAAGCAUUCACGUCGCGGCCUCUGUCAGAUUCUGGUGAAUCUGCGAAUUCUGCUGU [G19A C34U]: the self-cleavage is 0.181.
The result for GGGGGCCACAGCAGAAGUGCUCACGUCGCGGCCCCUGUCAGAUUCUGGUGAAUCUGCGAAUUCUGCUGU [C18U U20C] reads 0.135; that for GGGGGCCACAGCAGAAGUGAUCACGUCGCGGCCCCUGUCAGAUUCUGGUGAAUCUGCGAAUUCUGCUGU [C18U U20A], 0.108.
The result for GGGGGCCACAGCAGAAGCAUUCACGUCGCGGCCCCUGUCAGAUUCUGGUGAAUCUGCGAAUUCUGCUGU [G19A] reads 0.167.
The figure for GGGGGCCACAGCAGAAGCAUUCACGUCGCGGCCCCUGUCAGAUUCUGGUGAGUCUGCGAAUUCUGCUGU [G19A A52G] is 0.204.
Consider GGGGGCCACAGCAGAAGCAUUCACGUCGCGGCCCCUGUCAGAUUCUGGUGACUCUGCGAAUUCUGCUGU [G19A A52C], for which the self-cleavage was 0.183.
Regarding GGGGGCCACAGCAGAAGCAUUCACGUCGCGGCCCCUGUCAGAUUCUGGUGAUUCUGCGAAUUCUGCUGU [G19A A52U], the self-cleavage worked out at 0.156.
Consider GGGGGCCACAGCAGAAGUGUUCACGUCGCGGCCCCUGUCAGAUUCUGGUGAAUCUGCUAAUUCUGCUGU [C18U G58U], for which the self-cleavage is 0.942.
Regarding GGGGGCCACAGCAGAAGUGUUCACGUCGCGGCCCCUGUCAGAUUCUGGUGAAUCUGCAAAUUCUGCUGU [C18U G58A], the self-cleavage came out at 0.801.
The figure for GGGGGCCACAGCAGAAGUGUUCACGUCGCGGCCCCUGUCAGAUUCUGGUGAACCUGCGAAUUCUGCUGU [C18U U53C] is 0.47.
The result for GGGGGCCACAGCAGAAGUGUACACGUCGCGGCCCCUGUCAGAUUCUGGUGAAUCUGCGAAUUCUGCUGU [C18U U21A] reads 0.807; that for GGGGGCCACAGCAGAAGUGUGCACGUCGCGGCCCCUGUCAGAUUCUGGUGAAUCUGCGAAUUCUGCUGU [C18U U21G], 0.276.
The figure for GGGGGCCACAGCAGAAGUGUCCACGUCGCGGCCCCUGUCAGAUUCUGGUGAAUCUGCGAAUUCUGCUGU [C18U U21C] is 0.389.
As for GGGGGCCACAGCAGAAGCAUUCACGUCGCGGCCCCUGUAAGAUUCUGGUGAAUCUGCGAAUUCUGCUGU [G19A C39A], the self-cleavage came to 0.145.
Turning to GGGGGCCACAGCAGAAGCAUUCACGUCGCGGCCCCUGUUAGAUUCUGGUGAAUCUGCGAAUUCUGCUGU [G19A C39U], the self-cleavage worked out at 0.158.
The result for GGGGGCCACAGCAGAAGCAUUCAUGUCGCGGCCCCUGUCAGAUUCUGGUGAAUCUGCGAAUUCUGCUGU [G19A C24U] reads 0.16; that for GGGGGCCACAGCAGAAGCAUUCAGGUCGCGGCCCCUGUCAGAUUCUGGUGAAUCUGCGAAUUCUGCUGU [G19A C24G], 0.159.
Turning to GGGGGCCACAGCAGAAGCAUUCAAGUCGCGGCCCCUGUCAGAUUCUGGUGAAUCUGCGAAUUCUGCUGU [G19A C24A], the self-cleavage was 0.124.
The figure for GGGGGCCACAGCAGAAGCAUUCACGUCGCGGCCCCUGUCAGAUUCUGGUGAAUCUGCGGAUUCUGCUGU [G19A A59G] is 0.188.
The result for GGGGGCCACAGCAGAAGCAUUCACGUCGCGGCCCCUGUCAGAUUCUGGUGAAUCUGCGCAUUCUGCUGU [G19A A59C] reads 0.194.
For the variant GGGGGCCACAGCAGAAGCAUUCACGUCGCGGCCCCUGUCAGUUUCUGGUGAAUCUGCGAAUUCUGCUGU [G19A A42U], the self-cleavage is 0.191.
The figure for GGGGGCCACAGCAGAAGUGUUCACGUCGCGGCCCCUGUCAGAUUCUGGUGAAUCUGCGAAUACUGCUGU [C18U U62A] is 0.402.
As to GGGGGCCACAGCAGAAGUGUUCACGUCGCGGCCCCUGUCAGAUUCUGGUGAAUCUGCGAAUCCUGCUGU [C18U U62C], the self-cleavage was found to be 0.572.
The figure for GGGGGCCACAGCAGAAGUGUUCACGUCGCGGCCCCUGUCAGAUUCUGGUGAAUCCGCGAAUUCUGCUGU [C18U U55C] is 0.446; for GGGGGCCACAGCAGAAGUGUUCACGUCGCGGCCCCUGUCAGAUUCUGGUGAAUCAGCGAAUUCUGCUGU [C18U U55A] it is 0.447.
The figure for GGGGGCCACAGCAGAAGCAUUCACGUCGCGGACCCUGUCAGAUUCUGGUGAAUCUGCGAAUUCUGCUGU [G19A C32A] is 0.174; for GGGGGCCACAGCAGAAGCAUUCACGUCGCGGCCCCUGUCAGAUUCUGGUGUAUCUGCGAAUUCUGCUGU [G19A A51U] it is 0.245; for GGGGGCCACAGCAGAAGUGUUCACGUCGCGGCCCCUGUCAGAUUCUGGUGAAUCUGCGAAUUCUGCCGU [C18U U67C] it is 0.802.
Take GGGGGCCACAGCAGAAGUGUUCACGUCGCGGCCCCUGUCAGAUUCUGGUGAAUCUGCGAAUUCUGCAGU [C18U U67A]: the self-cleavage amounted to 0.862.
